± gives the standard deviation.
Assay: protein stability index of a GFP-peptide fusion (GPS, HEK-293T) (PSI 1-6); higher = more stable
[1] = treatment: DMSO, c terminus: a fixed tail appended
[2] = treatment: MLN4924 1 uM, 8 h, c terminus: a fixed tail appended
[3] = treatment: DMSO, c terminus: native
[4] = treatment: MLN4924 1 uM, 8 h, c terminus: native
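Note: 24-mer peptide tiles fused after GFP, lentivirally expressed, FACS-sorted into six equal bins by GFP/DsRed ratio, decoded by Illumina sequencing, PSI is the read-weighted mean bin number.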

| Sequence | protein stability index [1] | protein stability index [2] | protein stability index [3] | protein stability index [4] |
| --- | --- | --- | --- | --- |
| MEAMAASTSLPDPGDFDRNVPRIC [VDR] | 4.53 ± 0.11 | 4.53 ± 0.19 |  |  |
| MEEASEGGGNDRVRNLQSEVEGVK [VAMP8] | 5.49 ± 0.19 | 5.38 ± 0.16 |  |  |
| MERARDRLHLRRTTEQHVPEVEVQ [SNURF] | 4.77 ± 0.2 | 4.72 ± 0.06 |  |  |
| MFGLVIPLGVLQAIAMYFLPPSPR [SLC2A12] | 2.46 ± 0.64 | 2.53 ± 0.64 |  |  |
| MGGIMAPKDIMTNTHAKSILNSMN [KLHL12] | 2.83 ± 0.092 | 3.27 ± 0.47 |  |  |
| MLALRGQTGGDVNVEMDAAPGVDL [KRT16] | 4.25 ± 0.17 | 4.78 ± 0.17 |  |  |
| MLSHDNITWIAGAVTKDFKLTDKH [ACSBG2] | 2.66 ± 0.42 | 2.86 ± 0.3 |  |  |
| MLWEHNSTIVVMLTKLREMGREKC [PTPRD] | 2.33 ± 0.55 | 2.15 ± 0.2 |  |  |
| MMRREDEEEEGTMMKAKGDLEMKE [ZBED2] | 5.56 ± 0.25 | 5.64 ± 0.29 |  |  |
| MNVDFDAPLGYKEPERQVQHEEST [UFD1] | 5.28 ± 0.062 | 5.31 ± 0.29 |  |  |
| MPPVSYDVQLLHSWNNNDRSLNVF [SPSB1] | 2.46 ± 0.15 | 2.26 ± 0.27 |  |  |
| MPSKLFAGLVHVKQCIVAHPVNPP [CRYL1] | 2.37 ± 0.17 | 2.46 ± 0.35 |  |  |
| MPSTPGFVGYNPYSHLAYNNYRLG [SMARCE1] | 2.27 ± 0.099 | 2.42 ± 0.23 |  |  |
| MQQFLQKALEILRKDFSELRSAGV [FAM50A] | 3.67 ± 0.41 | 3.03 ± 0.25 |  |  |
| MRLPLPPAQVHSSLSAGEKPGFLA [RASAL3] | 3.4 ± 0.085 | 3.35 ± 0.14 |  |  |
| MRPPMPPHGQYGGHHQGMPGYLPG [ZNF207] | 3.23 ± 0.3 | 3.29 ± 0.18 |  |  |
| MSKLGKFFKGGGSSKSRAAPSPQE [CHMP4C] | 3.56 ± 0.33 | 3.76 ± 0.38 |  |  |
| MSLLPDKKTVHYYAELGQCSVFPA [PLK2] | 2.41 ± 0.13 | 2.44 ± 0.35 |  |  |
| MSNHTRERVTVAKLTLENFYSNLI [STK38L] | 2.21 ± 0.16 | 2.31 ± 0.31 |  |  |
| MSVDPACPQSLPCFEASDCKESSP [NANOGP8] | 5.44 ± 0.23 | 5.41 ± 0.33 |  |  |
| MSWEKEEGKSRHVDFQCVKSKSIT [BTBD10] | 4.48 ± 0.085 | 4.42 ± 0.2 |  |  |
| MTQQGAALQNYNNELVKCIEELCQ [SSNA1] | 3.33 ± 0.4 | 3.4 ± 0.31 |  |  |
| MTSISLPSVMDPGAFETVLASAYT [ZBTB22] | 2.57 ± 0.23 | 2.72 ± 0.26 |  |  |

| Sequence | protein stability index [1] | protein stability index [2] | protein stability index [3] | protein stability index [4] |
| --- | --- | --- | --- | --- |
| MTWSPLACGIVSGKYDSGIPPYSR [KCNAB2] | 3.19 ± 0.54 | 2.92 ± 0.3 |  |  |
| MVGGNAVPQRTAGGDVPERELYIR [MYORG] | 3.9 ± 0.28 | 4.29 ± 0.16 |  |  |
| MVQLDSIEDLEVTCTWKLPTLAKF [PRAME] | 2.6 ± 0.45 | 2.75 ± 0.64 |  |  |
| MWRDLTDEEKQEYLNEYEAEKIEY [SMARCE1] | 4.26 ± 0.4 | 4.35 ± 0.21 |  |  |
| NAKAHCGATALHFAAEAGHIDIVK [FEM1B] | 2.59 ± 0.36 | 2.62 ± 0.17 |  |  |
| NAYKDLAWKHGNIHLSAPCIYSEV [PCMTD1] | 2.31 ± 0.17 | 2.15 ± 0.31 |  |  |
| NDKFSFHEVKDNYIPVIKRALNSV [RHOBTB3] | 2.19 ± 0.49 | 2.41 ± 0.24 |  |  |
| NDMRDTPLHRAAFTGRKICSQGS [OSBPL1A] |  |  | 2.87 ± 0.22 | 2.73 ± 0.39 |
| NDRMSTRHDGYATNDGNHPSCQET [RBMY1A1] | 5.17 ± 0.19 | 5.22 ± 0.1 |  |  |
| NETADLGLDIGAQGEPLGYRQDDP [CTNNB1] | 5.41 ± 0.2 | 5.46 ± 0.23 |  |  |
| NFDDILNVCDDYDVTCNEFFFDRN [KCNG1] | 3.4 ± 0.28 | 3.27 ± 0.49 |  |  |
| NHEEEVNTLRSQLGDRLNVEVDTA [KRT34] | 5.4 ± 0.33 | 5.441 ± 0.028 |  |  |
| NIHQLQNRLSELEVANKDLTERKY [SASS6] | 3.42 ± 0.15 | 3.62 ± 0.34 |  |  |
| NIYETGDVCISILHPPVDDPQSGE [CDC34] | 4.52 ± 0.11 | 4.51 ± 0.29 |  |  |
| NLISPVRNGAVRRFGQTIQSFTLR [NET1] | 2.65 ± 0.32 | 2.7 ± 0.14 |  |  |
| NLLNMAYGVKSPLSLIARFSPIAI [ELAVL3] | 2.83 ± 0.58 | 2.81 ± 0.65 |  |  |
| NLTIRAGALTGKENNMLQPETHIF [DMRTC1] | 2.95 ± 0.21 | 3.17 ± 0.39 |  |  |
| NNSNLQRMGSSESTDSGFCLDSPG [CDC25A] | 4.43 ± 0.92 | 4.8 ± 0.3 |  |  |
| NPMDMGTIKKRLENNYYWSASECM [BRD3] | 2.34 ± 0.31 | 2.65 ± 0.082 |  |  |
| NREVATNSELVQSGKSEISELRRT [KRT17] | 5 ± 0.22 | 5.09 ± 0.24 |  |  |
| NRMHESMKLFDSICNNKWFTDTSI [GNAI1] | 2.38 ± 0.27 | 2.33 ± 0.45 |  |  |
| NRPSFDAILYYYQSGGRLRRPVNV [KCNA1] | 2.24 ± 0.085 | 2.37 ± 0.14 |  |  |
| NSAEACQYVITHAKVNILLVENDQ [ACSBG2] | 2.18 ± 0.52 | 2.62 ± 0.25 |  |  |

| Sequence | protein stability index [1] | protein stability index [2] | protein stability index [3] | protein stability index [4] |
| --- | --- | --- | --- | --- |
| NSTSYSNYYRTWNVVVHDWLYYYA [SOAT1] | 2.63 ± 0.52 | 2.56 ± 0.55 |  |  |
| NSVISVCSSSNLAGNDDSFGSLPS [DLC1] | 4.18 ± 0.21 | 4.23 ± 0.24 |  |  |
| NTEVVQVAAGRTQKAGVTRSGRLI [NEK8] | 4.32 ± 0.21 | 4.4 ± 0.16 |  |  |
| NVKLQELINHKKAEDTEKKDEPSK [CEP70] | 5.35 ± 0.16 | 5.2 ± 0.21 |  |  |
| PALCFAAAIFSLFFVPLSYLLMVT [TMEM175] | 3.03 ± 0.093 | 3.31 ± 0.21 |  |  |
| PATGGAIPSWQIRTVKLIRYVSNW [PKD2L1] | 2.09 ± 0.24 | 2.24 ± 0.39 |  |  |
| PCAGSTSLSHSPGCSSTQGNGRPG [LCOR] | 3.74 ± 0.42 | 4.16 ± 0.33 |  |  |
| PCLDQTRVKLTKRSGHTQTDYINA [PTPN9] | 3.99 ± 0.59 | 3.91 ± 0.1 |  |  |
| PCPSTTCCRACSVSFSTGAGGWSN [BET1L] | 2.27 ± 0.91 | 2.02 ± 0.47 |  |  |
| PDGGRADEWACELRLFGRVLERAA [P3H4] | 2.46 ± 0.3 | 2.62 ± 0.38 |  |  |
| PDKECRRCMQCDAKFDFLTRKHHC [ZFYVE21] | 3.91 ± 0.078 | 4 ± 0.27 |  |  |
| PDKEEQLPFGPFNGTAWTYHSQDE [PKD2L1] | 4.67 ± 0.1 | 4.76 ± 0.38 |  |  |
| PDLVKGPWTKEEDQKVIELVKKYG [MYBL2] | 3.86 ± 0.22 | 3.99 ± 0.21 |  |  |
| PDQEAEPQEAAGAQGRAGAPVPEP [EPB41L3] | 5.69 ± 0.21 | 5.69 ± 0.23 |  |  |
| PDSFYELKSQPLPLRSSLPISLQA [TFE3] | 3.14 ± 0.15 | 3.26 ± 0.29 |  |  |
| PEQALDTPGDCPPGRRDEDAGEGI [TMEM175] | 5.53 ± 0.23 | 5.43 ± 0.17 |  |  |
| PEQQVDMHDMLLEELAPVGTAHIP [ZNF449] | 4.68 ± 0.28 | 4.8 ± 0.085 |  |  |
| PERSYVFNGDFVDRGKDSVEILMI [PPEF2] | 2 ± 0.38 | 2.23 ± 0.31 |  |  |
| PGDPKWLDVIERDLHRQFPFHEMF [TBC1D10A] | 2.46 ± 0.31 | 2.57 ± 0.41 |  |  |
| PGLPGSTGNPKSEEPEVPDQEGLQ [SPNS1] | 5.39 ± 0.75 | 4.88 ± 0.22 |  |  |
| PGPQDPEESASRQRFGEALQDQEK [ELOA2] | 5.53 ± 0.29 | 5.68 ± 0.16 |  |  |
| PGPQGSAGQRGEPGPKGDPGEKSH [EMID1] | 5.62 ± 0.4 | 5.49 ± 0.26 |  |  |
| PGQPLPGASVRGLHPVQKVILNYP [TRAF3IP2] | 3.55 ± 0.36 | 3.45 ± 0.52 |  |  |

| Sequence | protein stability index [1] | protein stability index [2] | protein stability index [3] | protein stability index [4] |
| --- | --- | --- | --- | --- |
| PGRGVYLLKFDNSYSLWRSKSVYY [ACBD3] | 2.78 ± 0.52 | 2.69 ± 0.76 |  |  |
| PKAKAKAKAKAKDQTKAQAAAPAS [RPL29] | 5.2 ± 0.22 | 5.21 ± 0.072 |  |  |
| PKTMSQKEMEQLFSQYGRIITSRI [ELAVL3] | 2.68 ± 0.18 | 2.76 ± 0.35 |  |  |
| PLDMFSEEIKFYELGEEAMEKFRE [KCNA1] | 4.71 ± 0.31 | 4.85 ± 0.12 |  |  |
| PLPAGSLPPYPPYFEGAPFPHPLW [PWWP2B] | 2.58 ± 0.31 | 2.64 ± 0.37 |  |  |
| PLSPPPINYNGIFSLKQEETLDYG [NEUROD6] | 4.63 ± 0.38 | 4.36 ± 0.37 |  |  |
| PNYEFKLGKITFIRNSRPLVKKVE [UFD1] | 2.62 ± 0.5 | 2.77 ± 0.35 |  |  |
| PPALQNNLLSPLLTGTESPFDLEQ [NFE2L1] | 4.97 ± 0.29 | 5.04 ± 0.1 |  |  |
| PPARPRPRSPECRMIPGQPPASAR [IRX6] | 4.95 ± 0.21 | 4.9 ± 0.12 |  |  |
| PPFMIALACLHVACVVQQKDARQW [CCNC] | 3.3 ± 0.18 | 3.08 ± 0.35 |  |  |
| PPKSVNPTCMCCQATSSTACHIQ [FAM219A] |  |  | 2.92 ± 0.29 | 3.07 ± 0.16 |
| PPLRNYFLEEDNYKNIKRPPGDIM [USP39] | 3.19 ± 0.19 | 3.37 ± 0.17 |  |  |
| PPLSGRSTPKLTSRSAAQDLDRMG [PPFIA4] | 4.49 ± 0.19 | 4.62 ± 0.096 |  |  |
| PPPVESELALFQMSVLWLEHDRET [KLHL14] | 3.18 ± 0.085 | 3.25 ± 0.23 |  |  |
| PPSEPVPSLEDISCNTWPSMPSYS [TBX5] | 4.269 ± 0.038 | 4.38 ± 0.19 |  |  |
| PPYQGGPPRPPMGMRPPVMSQGGR [ZNF207] | 4.68 ± 0.34 | 4.91 ± 0.16 |  |  |
| PQELLEWELVVLGKLKWNLAAVTP [CCND2] | 2.47 ± 0.77 | 2.36 ± 0.57 |  |  |
| PQELLQSQDFVGEKLGSGEPSHSV [ATE1] | 5.11 ± 0.17 | 5.43 ± 0.064 |  |  |
| PQGDEEDIASRYPTLWTEQVKSRQ [SMOC2] | 4.55 ± 0.17 | 4.52 ± 0.091 |  |  |
| PREHHGRGGMLSASAETLPAGFRV [PPFIA4] | 3.5 ± 0.44 | 3.95 ± 0.076 |  |  |

From the supplement of paper PMC10567573
